T1: FcγRIIb extracellular domain, C-terminal His tag (human, UniProt P31994 43-217)
T1 construct: extracellular domain; also called 2b
T1 sequence: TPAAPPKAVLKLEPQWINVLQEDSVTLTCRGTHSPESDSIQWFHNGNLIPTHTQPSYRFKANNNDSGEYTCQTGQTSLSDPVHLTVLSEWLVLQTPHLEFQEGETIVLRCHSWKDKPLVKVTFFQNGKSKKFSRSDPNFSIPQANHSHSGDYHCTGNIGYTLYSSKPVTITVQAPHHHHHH

T2: FcγRIIa(R) extracellular domain, C-terminal His tag (human, UniProt P12318 34-217)
T2 construct: extracellular domain; Allotype R131; also called 2aR
T2 sequence: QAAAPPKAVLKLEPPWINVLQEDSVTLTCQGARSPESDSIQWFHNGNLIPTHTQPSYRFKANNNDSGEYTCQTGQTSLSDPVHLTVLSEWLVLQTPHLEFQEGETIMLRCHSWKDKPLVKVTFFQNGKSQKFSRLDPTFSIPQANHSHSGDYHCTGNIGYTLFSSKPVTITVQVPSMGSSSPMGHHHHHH

T3: FcγRIIa(H) extracellular domain, C-terminal His tag (human, UniProt P12318 34-217)
T3 construct: extracellular domain; Allotype H131; also called 2aH
T3 sequence: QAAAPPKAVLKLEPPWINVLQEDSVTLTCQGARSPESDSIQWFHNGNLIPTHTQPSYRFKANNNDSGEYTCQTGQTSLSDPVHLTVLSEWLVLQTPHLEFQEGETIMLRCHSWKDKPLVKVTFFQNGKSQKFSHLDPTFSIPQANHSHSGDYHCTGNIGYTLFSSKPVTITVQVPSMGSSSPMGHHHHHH


Columns and labels:
Assay in all cases: SPR (Biacore); binding relative to GpH7-A5/GpH7-B3/GpL16-k0 x100;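 also: antibodies captured on a chip surface, soluble FcγR flowed over in HBS-EP+ running buffer at 25 °C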
[1] = biological target: T1, FcγRIIb extracellular domain, …
Protocol: (§1) The antibody of interest was analyzed for its interaction with FcγR using a BiaCore™ T100, BiaCore™ A100, or BiaCore™ 4000 surface plasmon resonance system (GE Healthcare Japan Corp.). The running buffer used was HBS-EP+ (GE Healthcare Japan Corp.). The assay temperature was set to 25° C. The sensor chips used were: a chip prepared by immobilizing antigenic peptides onto Series S Sensor Chip CM5 (GE Healthcare Japan Corp.) by the amine coupling method; a chip prepared by immobilizing antigenic peptides biotinylated in advance onto Series S Sensor Chip SA (certified) (GE Healthcare Japan Corp.) through their interaction; a chip prepared by immobilizing protein L (ACTIGEN, BioVision, Inc.) onto Series S Sensor Chip CM5 (GE Healthcare Japan Corp.); and a chip prepared by immobilizing protein A/G (Thermo Fisher Scientific K.K.) onto Series S Sensor Chip CM5 (GE Healthcare Japan Corp.). The antibody of interest was captured onto any of these chips and allowed to interact with FcγR diluted with a running buffer. The antibody captured on the chip was washed off through the reaction of 10 mM glycine-HCl (pH 1.5) to regenerate the chip, which was repetitively used.

[2] = biological target: T2, FcγRIIa(R) extracellular domain, …
Protocol: as §1

[3] = biological target: T3, FcγRIIa(H) extracellular domain, …
Protocol: as §1

[4] = biological target: T4, FcγRIIIa extracellular domain, C-terminal His tag (human, UniProt P08637 17-208)
T4 construct: extracellular domain; also called 3a
T4 sequence (P08637 other isoform, or with tags, fused parts or gaps): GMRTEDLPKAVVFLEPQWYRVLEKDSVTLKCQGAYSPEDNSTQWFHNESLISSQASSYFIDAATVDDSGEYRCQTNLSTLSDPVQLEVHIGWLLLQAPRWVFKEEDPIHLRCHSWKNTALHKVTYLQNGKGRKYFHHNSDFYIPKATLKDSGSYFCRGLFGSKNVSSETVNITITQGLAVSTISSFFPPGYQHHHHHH
Protocol: as §1

[5] = biological target: T5, FcγRIa extracellular domain, C-terminal His tag (human, UniProt P12314 16-292)
T5 construct: extracellular domain; also called 1a
T5 sequence (P12314 other isoform, or with tags, fused parts or gaps): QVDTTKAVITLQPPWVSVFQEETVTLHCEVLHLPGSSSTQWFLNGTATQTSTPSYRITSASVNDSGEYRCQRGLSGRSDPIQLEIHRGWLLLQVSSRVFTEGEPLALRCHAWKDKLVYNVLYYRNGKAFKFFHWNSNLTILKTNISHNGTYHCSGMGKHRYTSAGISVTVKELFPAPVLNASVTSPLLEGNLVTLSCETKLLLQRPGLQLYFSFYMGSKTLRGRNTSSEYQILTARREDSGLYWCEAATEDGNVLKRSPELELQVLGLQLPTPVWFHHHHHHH
Protocol: as §1

He/Con 2b [1]	He/Con 2aR [2]	He/Con 2aH [3]	He/Con 3a [4]	He/Con 1a [5]	Binder
105%	112%	104%	144%	110%	GpH7-A5/GpH7-B3 variant A330_04F/GpL16-k0 (antibody, human IgG1, kappa, He Ab: anti-glypican 3 IgG1 heterodimer, only the GpH7-B3 chain mutated; position in EU numbering; also called He Ab) heavy 1: not shown heavy 2: not shown light: DIVMTQSPLSLPVTPGEPASISCQASESLVHSNRNTYLHWYLQKPGQSPQLLIYKVSNRFSGVPDRFSGSGSGTDFTLKISRVEAEDVGVYYCSQNTHVPPTFGQGTKVEIERTVAAPSVFIFPPSDEQLKSGTASVVCLLNNFYPREAKVQWKVDNALQSGNSQESVTEQDSKDSTYSLSSTLTLSKADYEKHKVYACEVTHQGLSSPVTKSFNRGEC
62.8%	79.5%	67.8%	56.4%	112%	GpH7-A5/GpH7-B3 variant A330_09D/GpL16-k0 (antibody, human IgG1, kappa, He Ab: anti-glypican 3 IgG1 heterodimer, only the GpH7-B3 chain mutated; position in EU numbering; also called He Ab) heavy 1: not shown heavy 2: not shown light: DIVMTQSPLSLPVTPGEPASISCQASESLVHSNRNTYLHWYLQKPGQSPQLLIYKVSNRFSGVPDRFSGSGSGTDFTLKISRVEAEDVGVYYCSQNTHVPPTFGQGTKVEIERTVAAPSVFIFPPSDEQLKSGTASVVCLLNNFYPREAKVQWKVDNALQSGNSQESVTEQDSKDSTYSLSSTLTLSKADYEKHKVYACEVTHQGLSSPVTKSFNRGEC
104%	127%	110%	92.2%	96.7%	GpH7-A5/GpH7-B3 variant E333_12R/GpL16-k0 (antibody, human IgG1, kappa, He Ab: anti-glypican 3 IgG1 heterodimer, only the GpH7-B3 chain mutated; position in EU numbering; also called He Ab) heavy 1: not shown heavy 2: not shown light: DIVMTQSPLSLPVTPGEPASISCQASESLVHSNRNTYLHWYLQKPGQSPQLLIYKVSNRFSGVPDRFSGSGSGTDFTLKISRVEAEDVGVYYCSQNTHVPPTFGQGTKVEIERTVAAPSVFIFPPSDEQLKSGTASVVCLLNNFYPREAKVQWKVDNALQSGNSQESVTEQDSKDSTYSLSSTLTLSKADYEKHKVYACEVTHQGLSSPVTKSFNRGEC
107%	114%	106%	122%	108%	GpH7-A5/GpH7-B3 variant A330_15Y/GpL16-k0 (antibody, human IgG1, kappa, He Ab: anti-glypican 3 IgG1 heterodimer, only the GpH7-B3 chain mutated; position in EU numbering; also called He Ab) heavy 1: not shown heavy 2: not shown light: DIVMTQSPLSLPVTPGEPASISCQASESLVHSNRNTYLHWYLQKPGQSPQLLIYKVSNRFSGVPDRFSGSGSGTDFTLKISRVEAEDVGVYYCSQNTHVPPTFGQGTKVEIERTVAAPSVFIFPPSDEQLKSGTASVVCLLNNFYPREAKVQWKVDNALQSGNSQESVTEQDSKDSTYSLSSTLTLSKADYEKHKVYACEVTHQGLSSPVTKSFNRGEC
75.8%	96%	94.4%	101%	109%	GpH7-A5/GpH7-B3 variant A330_07I/GpL16-k0 (antibody, human IgG1, kappa, He Ab: anti-glypican 3 IgG1 heterodimer, only the GpH7-B3 chain mutated; position in EU numbering; also called He Ab) heavy 1: not shown heavy 2: not shown light: DIVMTQSPLSLPVTPGEPASISCQASESLVHSNRNTYLHWYLQKPGQSPQLLIYKVSNRFSGVPDRFSGSGSGTDFTLKISRVEAEDVGVYYCSQNTHVPPTFGQGTKVEIERTVAAPSVFIFPPSDEQLKSGTASVVCLLNNFYPREAKVQWKVDNALQSGNSQESVTEQDSKDSTYSLSSTLTLSKADYEKHKVYACEVTHQGLSSPVTKSFNRGEC
99%	111%	110%	102%	109%	GpH7-A5/GpH7-B3 variant A330_16H/GpL16-k0 (antibody, human IgG1, kappa, He Ab: anti-glypican 3 IgG1 heterodimer, only the GpH7-B3 chain mutated; position in EU numbering; also called He Ab) heavy 1: not shown heavy 2: not shown light: DIVMTQSPLSLPVTPGEPASISCQASESLVHSNRNTYLHWYLQKPGQSPQLLIYKVSNRFSGVPDRFSGSGSGTDFTLKISRVEAEDVGVYYCSQNTHVPPTFGQGTKVEIERTVAAPSVFIFPPSDEQLKSGTASVVCLLNNFYPREAKVQWKVDNALQSGNSQESVTEQDSKDSTYSLSSTLTLSKADYEKHKVYACEVTHQGLSSPVTKSFNRGEC
79.2%	97.2%	87.7%	82.8%	111%	GpH7-A5/GpH7-B3 variant A330_10E/GpL16-k0 (antibody, human IgG1, kappa, He Ab: anti-glypican 3 IgG1 heterodimer, only the GpH7-B3 chain mutated; position in EU numbering; also called He Ab) heavy 1: not shown heavy 2: not shown light: DIVMTQSPLSLPVTPGEPASISCQASESLVHSNRNTYLHWYLQKPGQSPQLLIYKVSNRFSGVPDRFSGSGSGTDFTLKISRVEAEDVGVYYCSQNTHVPPTFGQGTKVEIERTVAAPSVFIFPPSDEQLKSGTASVVCLLNNFYPREAKVQWKVDNALQSGNSQESVTEQDSKDSTYSLSSTLTLSKADYEKHKVYACEVTHQGLSSPVTKSFNRGEC
107%	124%	118%	91.8%	107%	GpH7-A5/GpH7-B3 variant A330_11K/GpL16-k0 (antibody, human IgG1, kappa, He Ab: anti-glypican 3 IgG1 heterodimer, only the GpH7-B3 chain mutated; position in EU numbering; also called He Ab) heavy 1: not shown heavy 2: not shown light: DIVMTQSPLSLPVTPGEPASISCQASESLVHSNRNTYLHWYLQKPGQSPQLLIYKVSNRFSGVPDRFSGSGSGTDFTLKISRVEAEDVGVYYCSQNTHVPPTFGQGTKVEIERTVAAPSVFIFPPSDEQLKSGTASVVCLLNNFYPREAKVQWKVDNALQSGNSQESVTEQDSKDSTYSLSSTLTLSKADYEKHKVYACEVTHQGLSSPVTKSFNRGEC

The next lines start with the binder.

Binder	He/Con 2b [1]	He/Con 2aR [2]	He/Con 2aH [3]	He/Con 3a [4]	He/Con 1a [5]
GpH7-A5/GpH7-B3 variant A330_19Q/GpL16-k0 (antibody, human IgG1, kappa, He Ab: anti-glypican 3 IgG1 heterodimer, only the GpH7-B3 chain mutated; position in EU numbering; also called He Ab) heavy 1: not shown heavy 2: not shown light: DIVMTQSPLSLPVTPGEPASISCQASESLVHSNRNTYLHWYLQKPGQSPQLLIYKVSNRFSGVPDRFSGSGSGTDFTLKISRVEAEDVGVYYCSQNTHVPPTFGQGTKVEIERTVAAPSVFIFPPSDEQLKSGTASVVCLLNNFYPREAKVQWKVDNALQSGNSQESVTEQDSKDSTYSLSSTLTLSKADYEKHKVYACEVTHQGLSSPVTKSFNRGEC	103%	117%	110%	86.3%	109%
GpH7-A5/GpH7-B3 variant A330_06M/GpL16-k0 (antibody, human IgG1, kappa, He Ab: anti-glypican 3 IgG1 heterodimer, only the GpH7-B3 chain mutated; position in EU numbering; also called He Ab) heavy 1: not shown heavy 2: not shown light: DIVMTQSPLSLPVTPGEPASISCQASESLVHSNRNTYLHWYLQKPGQSPQLLIYKVSNRFSGVPDRFSGSGSGTDFTLKISRVEAEDVGVYYCSQNTHVPPTFGQGTKVEIERTVAAPSVFIFPPSDEQLKSGTASVVCLLNNFYPREAKVQWKVDNALQSGNSQESVTEQDSKDSTYSLSSTLTLSKADYEKHKVYACEVTHQGLSSPVTKSFNRGEC	90.9%	107%	101%	139%	108%
GpH7-A5/GpH7-B3 variant A330_18N/GpL16-k0 (antibody, human IgG1, kappa, He Ab: anti-glypican 3 IgG1 heterodimer, only the GpH7-B3 chain mutated; position in EU numbering; also called He Ab) heavy 1: not shown heavy 2: not shown light: DIVMTQSPLSLPVTPGEPASISCQASESLVHSNRNTYLHWYLQKPGQSPQLLIYKVSNRFSGVPDRFSGSGSGTDFTLKISRVEAEDVGVYYCSQNTHVPPTFGQGTKVEIERTVAAPSVFIFPPSDEQLKSGTASVVCLLNNFYPREAKVQWKVDNALQSGNSQESVTEQDSKDSTYSLSSTLTLSKADYEKHKVYACEVTHQGLSSPVTKSFNRGEC	71.9%	91%	88.3%	67.3%	110%
GpH7-A5/GpH7-B3 variant A330_12R/GpL16-k0 (antibody, human IgG1, kappa, He Ab: anti-glypican 3 IgG1 heterodimer, only the GpH7-B3 chain mutated; position in EU numbering; also called He Ab) heavy 1: not shown heavy 2: not shown light: DIVMTQSPLSLPVTPGEPASISCQASESLVHSNRNTYLHWYLQKPGQSPQLLIYKVSNRFSGVPDRFSGSGSGTDFTLKISRVEAEDVGVYYCSQNTHVPPTFGQGTKVEIERTVAAPSVFIFPPSDEQLKSGTASVVCLLNNFYPREAKVQWKVDNALQSGNSQESVTEQDSKDSTYSLSSTLTLSKADYEKHKVYACEVTHQGLSSPVTKSFNRGEC	95.8%	116%	116%	77.3%	103%
GpH7-A5/GpH7-B3 variant A330_08L/GpL16-k0 (antibody, human IgG1, kappa, He Ab: anti-glypican 3 IgG1 heterodimer, only the GpH7-B3 chain mutated; position in EU numbering; also called He Ab) heavy 1: not shown heavy 2: not shown light: DIVMTQSPLSLPVTPGEPASISCQASESLVHSNRNTYLHWYLQKPGQSPQLLIYKVSNRFSGVPDRFSGSGSGTDFTLKISRVEAEDVGVYYCSQNTHVPPTFGQGTKVEIERTVAAPSVFIFPPSDEQLKSGTASVVCLLNNFYPREAKVQWKVDNALQSGNSQESVTEQDSKDSTYSLSSTLTLSKADYEKHKVYACEVTHQGLSSPVTKSFNRGEC	79.6%	99.7%	94.7%	122%	110%
GpH7-A5/GpH7-B3 variant A330_20W/GpL16-k0 (antibody, human IgG1, kappa, He Ab: anti-glypican 3 IgG1 heterodimer, only the GpH7-B3 chain mutated; position in EU numbering; also called He Ab) heavy 1: not shown heavy 2: not shown light: DIVMTQSPLSLPVTPGEPASISCQASESLVHSNRNTYLHWYLQKPGQSPQLLIYKVSNRFSGVPDRFSGSGSGTDFTLKISRVEAEDVGVYYCSQNTHVPPTFGQGTKVEIERTVAAPSVFIFPPSDEQLKSGTASVVCLLNNFYPREAKVQWKVDNALQSGNSQESVTEQDSKDSTYSLSSTLTLSKADYEKHKVYACEVTHQGLSSPVTKSFNRGEC	86%	97.6%	93.8%	102%	111%
GpH7-A5/GpH7-B3 variant A330_14T/GpL16-k0 (antibody, human IgG1, kappa, He Ab: anti-glypican 3 IgG1 heterodimer, only the GpH7-B3 chain mutated; position in EU numbering; also called He Ab) heavy 1: not shown heavy 2: not shown light: DIVMTQSPLSLPVTPGEPASISCQASESLVHSNRNTYLHWYLQKPGQSPQLLIYKVSNRFSGVPDRFSGSGSGTDFTLKISRVEAEDVGVYYCSQNTHVPPTFGQGTKVEIERTVAAPSVFIFPPSDEQLKSGTASVVCLLNNFYPREAKVQWKVDNALQSGNSQESVTEQDSKDSTYSLSSTLTLSKADYEKHKVYACEVTHQGLSSPVTKSFNRGEC	87.9%	107%	102%	85.8%	108%

Reference: patent US20260167699A1 (Chugai, published 2026)
